# In US20250313614A1 (ANNEXON, published 2025):
# Where “and” joins values, the source holds several entries; their conditions need not be identical. Identical values can stand only once.
# B1: FabA (Fab)
# heavy: QVQLVQSGAELKKPGASVKVSCKSSGYHFTSYWMHWVKQAPGQGLEWIGVIHPNSGSINYNEKFESRVTITVDKSTSTAYMELSSLRSEDTAVYYCAGERDSTEVLPMDYWGQGTTVTVSSASTKGPSVFPLAPSSKSTSGGTAALGCLVKDYFPEPVTVSWNSGALTSGVHTFPAVLQSSGLYSLSSVVTVPSSSLGTQTYICNVNHKPSNTKVDKKVEPKSCDKTHT
# light: DVQITQSPSSLSASLGERATINCRASKSINKYLAWYQQKPGKAPKLLIYSGSTLQSGIPARFSGSGSGTDFTLTISSLEPEDFAMYYCQQHNEYPLTFGQGTKLEIKRTVAAPSVFIFPPSDEQLKSGTASVVCLLNNFYPREAKVQWKVDNALQSGNSQESVTEQDSKDSTYSLSSTLTLSKADYEKHKVYACEVTHQGLSSPVTKSFNRGEC
# notes: Recombinant humanized IgG1 Fab; also called anti-C1q Fab; anti-C1q antibody Fab fragment
# Legend:
# C1q = C1q (Native C1q is a hexamer of A-B-C heterotrimers (18 chains); one chain of each kind is given. The collagen-like regions carry hydroxyproline and hydroxylysine.); assay: cell-based or functional assay
# human C1q [1] = target: T1, human C1q (human, UniProt P02745 23-245; P02746 28-253; P02747 29-245); assay: cell-based or functional assay
# human C1q [2] = target: T1, human C1q; assay: one-sided ELISA on human C1q, detection with enzyme-tagged anti-human-Fc or anti-human kappa antibody
# From the text: Binding of Mab2-Fab, FabA and Mab2 to human C1q in a one-sided ELISA. Bound antibody or Fab molecules were detected using an enzyme-tagged anti-human-Fc or anti-human kappa antibody followed by enzyme substrate.
# T1 sequence (P02745 23-245 limits assumed, chain 1 of 3): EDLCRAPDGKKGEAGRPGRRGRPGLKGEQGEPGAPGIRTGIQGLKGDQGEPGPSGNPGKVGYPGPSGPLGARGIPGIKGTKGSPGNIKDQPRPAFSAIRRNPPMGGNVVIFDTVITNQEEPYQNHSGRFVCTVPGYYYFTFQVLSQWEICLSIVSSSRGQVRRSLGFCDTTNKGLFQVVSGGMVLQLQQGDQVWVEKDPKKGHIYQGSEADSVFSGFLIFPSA
# T1 sequence (P02746 28-253 limits assumed, chain 2 of 3): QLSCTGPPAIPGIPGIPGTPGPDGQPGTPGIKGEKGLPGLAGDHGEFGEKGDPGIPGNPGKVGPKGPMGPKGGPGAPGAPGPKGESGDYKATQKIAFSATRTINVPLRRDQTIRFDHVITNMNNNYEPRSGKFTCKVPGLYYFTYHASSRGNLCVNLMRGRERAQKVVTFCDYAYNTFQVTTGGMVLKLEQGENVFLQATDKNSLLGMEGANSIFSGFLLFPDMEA
# T1 sequence (P02747 29-245 limits assumed, chain 3 of 3): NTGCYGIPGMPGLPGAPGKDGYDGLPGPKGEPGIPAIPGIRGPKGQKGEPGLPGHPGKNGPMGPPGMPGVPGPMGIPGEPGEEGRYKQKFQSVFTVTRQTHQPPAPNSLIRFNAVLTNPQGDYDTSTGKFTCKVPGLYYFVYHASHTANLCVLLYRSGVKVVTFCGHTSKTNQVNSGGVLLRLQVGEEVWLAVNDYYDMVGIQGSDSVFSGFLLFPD
# C1q (Native C1q is a hexamer of A-B-C heterotrimers (18 chains); one chain of each kind is given. The collagen-like regions carry hydroxyproline and hydroxylysine.), sequence (A chain, as listed by the source limits assumed, form in doubt, chain 1 of 3): as the sequence (P02745 23-245 limits assumed, chain 1 of 3) above
# C1q (Native C1q is a hexamer of A-B-C heterotrimers (18 chains); one chain of each kind is given. The collagen-like regions carry hydroxyproline and hydroxylysine.), sequence (B chain, as listed by the source limits assumed, form in doubt, chain 2 of 3): as the sequence (P02746 28-253 limits assumed, chain 2 of 3) above
# C1q (Native C1q is a hexamer of A-B-C heterotrimers (18 chains); one chain of each kind is given. The collagen-like regions carry hydroxyproline and hydroxylysine.), sequence (C chain, as listed by the source limits assumed, form in doubt, chain 3 of 3): as the sequence (P02747 29-245 limits assumed, chain 3 of 3) above
binder,measurement,setting,value
B1,"IC50 of inhibition of the classical pathway (IgM-coated wells, C5b-9 detection, Weislab ELISA kit)",C1q,≤ 0.3 µg/mL
same,half maximal inhibitory concentration (IC50) of inhibition of IgM-coated RBC hemolysis in human serum,human C1q [1],0.62 µg/mL and ~12 nM
same,EC50,human C1q [2],2.5 ng/mL
